Test results: PMC8013792, “Bacterial protein domains with a novel Ig‐like fold target human CEACAM receptors” (The EMBO Journal, 2021)

B1: IgSF (IgI3) domain of β protein, recombinant, biotinylated [modified: biotin, C-terminal] [Streptococcus agalactiae (GBS)] / recombinant CEACAM1 N-terminal domain, unglycosylated, 6xHis tagged [human] (parent complex)
chain 1: ANENNQQKIELTVSPENITVYEGEDVKFTVTAKSDSKTTLDFSDLLTKYNPSVSDRISTNYKTNTDNHKIAEITIKNLKLNESQTVTLKAKDDSGNVVEKTFTITVQKKEEKQLPSTGGS
chain 2: MAQLTTESMPFNVAEGKEVLLLVHNLPQQLFGYSWYKGERVDGNRQIVGYAIGTQQATPGPANSGRETIYPNASLLIQNVTQNDTGFYTLQVIKSDLVNEEATGQFHVY
B2: recombinant CEACAM1 N-terminal domain, unglycosylated, 6xHis tagged [human] / IgSF (IgI3) domain of β protein, recombinant, biotinylated [modified: biotin, C-terminal] [Streptococcus agalactiae (GBS)] (parent complex)
chain 1: B1 chain 2
chain 2: B1 chain 1

Variants of: B1
Experiment: flow cytometry on coated dynabeads; parent: 800; read off a plot

Point of comparison: chain 2 MAQLTTESMPFNVAEGKEVLLLVHNLPQQLFGYSWYKGERVDGNRAIVGYAIGTQQATPGPANSGRETIYPNASLLIQNVTQNDTGFYTLQVIKSDLVNEEATGQFHVY [chain 2 Q46A], response ~510 Geometric MFI. Against it:
- chain 2 MAQLTTESMPFNVAEGKEVLLLVHNLPQQLFGYSWYKGERVDGNRQIVGYAIGTQQATPGPANSGRETIYPNASLLIQNVTQNDTGFYTLQVIKSDLVAEEATGQFHVY [chain 2 N99A] — higher, ~540 Geometric MFI
- chain 2 MAQLTTESMPFNVAEGKEVLLLVHNLPQQLFGYSWYKGERVDGNRQIVGYAIGTQQATPGPANSGRETIYPNASLLIQNVTQNDTGFYTLQVIKSDAVNEEATGQFHVY [chain 2 L97A] — lower, ~450 Geometric MFI
- chain 2 MAQLTTESMPFNVAEGKEVLLLVHNLPQQLAGYSWYKGERVDGNRQIVGYAIGTQQATPGPANSGRETIYPNASLLIQNVTQNDTGFYTLQVIKSDLVNEEATGQFHVY [chain 2 F31A] — lower, ~390 Geometric MFI
- chain 2 MAQLTTESMPFNVAEGKEVLLLVHNLPQQLFGYSWYKGERVDGNRQIVGYAIGTQQATPGPANSGRETIYPNASLLIQNVTQNDTGFYTLAVIKSDLVNEEATGQFHVY [chain 2 Q91A] — lower, ~230 Geometric MFI
- chain 2 MAQLTTESMPFNVAEGKEVLLLVHNLPQQLFGYSWYKGERVDGNRQIVGYAIGTQQATPGPANSGRETIYPNASLLIQNVTQNDTGFYTLQVAKSDLVNEEATGQFHVY [chain 2 I93A] — lower, ~240 Geometric MFI
- chain 2 MAQLTTESMPFNVAEGKEVLLLVHNLPQQLFGYSWYKGERVDGNRQIVGYAIGTQQATPGPANSGRETIYPNASLLIQNVTQNDTGFYTLQVIKSDLANEEATGQFHVY [chain 2 V98A] — higher, ~590 Geometric MFI

Variants of: B2
Experiment: flow cytometry on coated dynabeads; parent: 390; read off a plot

Point of comparison: chain 2 ANENNQQKIELTVSPENITVYEGEDVKFTVTAKSDSKTTLDFSDLLTKYNPSVSARISTNYKTNTDNHKIAEITIKNLKLNESQTVTLKAKDDSGNVVEKTFTITVQKKEEKQLPSTGGS [chain 2 D55A], response ~340 Geometric MFI. Against it:
- chain 2 ANENNQQKIELTVSPENITVYEGEDVKFTVTAKSDSKTTLDFSDLLTKYNPSASDRISTNYKTNTDNHKIAEITIKNLKLNESQTVTLKAKDDSGNVVEKTFTITVQKKEEKQLPSTGGS [chain 2 V53A] — lower, ~280 Geometric MFI
- chain 2 ANENNQQKIELTVSPENITVYEGEDVKFTVTAKSDSKTTLDASDLLTKYNPSVSDRISTNYKTNTDNHKIAEITIKNLKLNESQTVTLKAKDDSGNVVEKTFTITVQKKEEKQLPSTGGS [chain 2 F42A] — higher, ~750 Geometric MFI
- chain 2 ANENNQQKIELTVSPENITVYEGEDVKFTVTAKSDSKTTLDFSDLATKYNPSVSDRISTNYKTNTDNHKIAEITIKNLKLNESQTVTLKAKDDSGNVVEKTFTITVQKKEEKQLPSTGGS [chain 2 L46A] — lower, ~200 Geometric MFI
